Results taken from the RNAGym collection of RNA variant scans (doi:10.1073/pnas.2313332121).
This sample holds only a part of the variants without activity.

B1: TPR 5TU (parent)
chain: GGAUCUUCUCGAUCUAACAAAAAAGACAAAUCUGCCACAAAGCUUGAGAGCAUCUUCGGAUGCAGAGGCGGCAGCCUUCGGUGGCGCGAUAGCGCCAACGUUCUCAACUAUGACACGCAAAACGCGUGCUCCGUUGAAUGGAGUUUAUCAUG

Variants of: B1
Assay: polymerase ribozyme fitness, log enrichment relative to wild type (log ratio); higher = more active; in vitro selection for triplet polymerase activity
How it was run: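 Mutant libraries were PCR-built and transcribed for each subunit of a heterodimeric triplet polymerase ribozyme and selected for one round in triplicate at −7 °C, frozen, before gel excision of extended constructs and streptavidin-bead capture. Input and output libraries were Illumina-sequenced, keeping genotypes with ≥10 input reads and ≥1 read per output. Fitness is a logarithmic ratio of genotype to wild-type enrichment, in base 2, using inverse-variance-weighted replicate averages.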

Polymerase ribozyme fitness (log ratio), -4.18:
U7C C27U A49C A52G C79A C87G C93G C96A A97U C99U C108U A120U

Polymerase ribozyme fitness (log ratio), -3.35:
C8U G92U

Polymerase ribozyme fitness (log ratio), -3.3:
U7C C57G A98G

Polymerase ribozyme fitness (log ratio), -3.42:
C8A C93U

Polymerase ribozyme fitness (log ratio), -3.15:
C8G C116G

Polymerase ribozyme fitness (log ratio), -2.61:
U7C C38U C95A A119U

Polymerase ribozyme fitness (log ratio), -4.13:
C8A A26G A37C G62A A120G G140C G152A

Polymerase ribozyme fitness (log ratio), -3.28:
C8A G84A

Polymerase ribozyme fitness (log ratio), -3.98:
U7C U9G A17U A26G G84A C116A

Polymerase ribozyme fitness (log ratio), -3.7:
U7C G86U

Polymerase ribozyme fitness (log ratio), ≤ -4.2:
C8G A20C G67C G68C A113U
C8A G42A G59U G67C
C8A U56A A66C G94A A98U
C8A C32G A40U A52U A73U A91U
C8U A21G A41C G50A G65C G88A
U7G A60U G83C C85A C105G A137G
C8A A17C A26C A40C C87U U144G
U7G C35A A40G U77C A150U
U7C G50U G140U
C8A A47G A49C G59C A60U G84A C125G
C8A A17G A73U U78G C87U
U7G U45A C57U C76A G83A G84A
U7G A40U C43G A91U
C8G A47C C54G
U7C C27U C38U C54G A64G C75U C85A C96U C105G C114U
C8A A19G G62A G67C C93A A97U G112U A142G U148A
U7G A26C U31G U55A G86C G126U
C8A U13G G50C C76G C118A
C8U A28U U53A G67A C69U G88C A89U A98G A138C
C8A C57U G67C C95A A97G U151A
U7C U55A C63U G88U A107U U145A
C8A A17G U78G G94A G133A U134A
U7G C75A G84A G94U A106U A120C
C8A C14U A21C U53A G83A A150C
U7G A19C A30U G71C G84A C96G C118G
C8G U55G C72U G84U G136A
U7G U15A G58U G70C A91G
C8U A41C U44G G81C G92U C93G
C8A G25U U31A U82C C118G U145C
U7G C10A C51A U82G G88A C108U U111C G133U G143C
C8A A12U U61A C79U G84U C85G C118U A119G C129A G143C U148G
C8U C43U G48C U55A G92C
C8A G88U G92U C95U A106C U127G
U7G C63G C76G C93G A97U C99G A106U
C8A A22U C79G G81U C95U A107U C108U
C8G A29C U55G A60G C85G A89G G140C
U7G G11A C18A A37G G50A C85U G112U
U7G A20U U53A G88U C96A A113U C114U A122U U139A A142U
C8G G48C G80U G84U C125U G141U
C8U C38G G92U C95U C99U U104A U145G
C8G C54G C85U A121U C131A G136U A137G
C8G A22C A24U C69U A73U C93U
C8A A12G A17G U56A A97U A147C
C8G C14A A39C G74U G143U
C8U C43G A47U A64G G70A C79G C99G U135C G136C U145A
C8A G11C A29U C95G
U7C C27A C69G G86A G100C
C8U A21C G25U A97U
C8G C27G C36G A39C C85A
C8G C18G C57G G83U C118U G128A
C8A A26G G59U A89G C93G C95U C108U C132A
C8G U13C A16G A52G G83A U101G G126A
C8A C14U A37G C54U C85U
C8G G83A A97U U127A
C8A C18U C35G C57U C76A G92U G117C U134A
U7G A12G A52U C57A A73G C93G
C8G G84U G100U C132U U144A
C8G A12G G42C U82A C95U C108U G136A G143A A150U
C8G G11A A52G A89U C93G
C8G A24G U33G G59A G71A G74A U144C
C8A C93A
C8G A17G G25A C54G G71C C87U U90A C96U C132U
U7G U53A A147G
U7G C10A C75A C87A C125G A138U
U7G A21C C32A A49C U53C C69U A142C
C8G A30G C35U G65U G94U U135C U144G
C8G C35U A40U C95U C149A
U7G A20C A40C G48U A64U A89U G92U U101C C132A
C8U C79G G84A G94C G136C A138G A150G
C8G C43U G88C C93A U146G
C8A C10U U33A G81U C87A C103G A147C

Polymerase ribozyme fitness (log ratio), -3.25:
U7G U15A G59C G124C G136A

Polymerase ribozyme fitness (log ratio), -3.68:
C8A G92C

Polymerase ribozyme fitness (log ratio), -2.93:
U7G C95U
